For one substance, percent neutralization of pseudovirus results are on record in US20240376180A1.

For this experiment, the target named is SARS-CoV spike on S-pseudotyped MLV virions (SARS-CoV). Briefly: cell-based or functional assay.

For the substance COVA1-16 (antibody), the percent neutralization of pseudovirus at 200 µg, antibody alone was 28%.
